“Also recorded” adds a separate entry of the source.
Columns and labels:
C. difficile R20291 [1] = experiment: Optical drop assay, lytic activity on C. difficile R20291; assay type: cell-based, Clostridium difficile; conditions: strain R20291, 200 μg/ml
Procedure: The lytic activity of proteins LHD and LCD against C. difficile strains was determined as previously described (Wang, Euler et al. 2015). Briefly, C. difficile strains were cultured in an anaerobic chamber to mid-log phase, and the bacterial pellets were harvested by centrifugation at 3000×g for 5 min. Pellets were washed twice and re-suspended in sterilized ddH2O, and resuspensions were not buffered. Prior to tests, bacterial optical density at 600 nm (OD600) was adjusted to approximately 0.8-1.0. Proteins LHD and LCD were added into the cell re-suspension with the final concentration of 200 μg/ml. The drop in OD600 at 37° C. was measured every 10 minutes for 60 min˜90 min. Bacterial re-suspension with sterilized water was also set as a control. Three repeats were included in each test.

C. difficile R20291 [2] = experiment: Minimum inhibitory concentration (MIC) on strain R20291; assay type: cell-based, Clostridium difficile; conditions: strain R20291, BHIS, 37° C. for 18 h
Procedure: The minimum inhibitory concentrations (MICs) of LHD and LCD were determined using the protocol of Wiegand, et al. (Wiegand, Hilpert et al. 2008) with some modifications, as described previously (Gilmer, Schmitz et al. 2017). In brief, strain R20291 was grown in BHIS and adjusted to ˜5×10^5 cells/ml in BHIS, and distributed into the wells of a 96-well round bottom polystyrene microtiter plate. In the wells of each row, either sterile-filtered lysin or control vehicle (metronidazole, vancomycin and fidaxomicin) was added with a final concertation varied from 200 μg/ml to 0.19 μg/ml (2-fold dilution) (Wiegand, Hilpert et al. 2008). The plates were incubated at 37° C. for 18 h. The MIC was “the lowest or minimum concentration of lysin or control vehicle that prevented the formation of a cell pellet (a measure of growth) on the bottom of the wells” (Gilmer, Schmitz et al. 2017). The MICs were also confirmed by measuring the OD600 values using a Bio-Rad plate reader (Bio-Rad, Hercules, CA).

[3] = molecular target: Clostridium difficile toxin B (TcdB) (Clostridioides difficile, UniProt P18177); experiment: Inhibition of TcdB cytotoxicity in CT26 cells (cell rounding, non-glucosylated Rac1 Western blot); assay type: cell-based; conditions: pre-treatment 750 ng/ml 1 hr, TcdB 15 ng/ml 5 hrs
Clostridium difficile toxin B (TcdB), sequence (P18177 whole entry): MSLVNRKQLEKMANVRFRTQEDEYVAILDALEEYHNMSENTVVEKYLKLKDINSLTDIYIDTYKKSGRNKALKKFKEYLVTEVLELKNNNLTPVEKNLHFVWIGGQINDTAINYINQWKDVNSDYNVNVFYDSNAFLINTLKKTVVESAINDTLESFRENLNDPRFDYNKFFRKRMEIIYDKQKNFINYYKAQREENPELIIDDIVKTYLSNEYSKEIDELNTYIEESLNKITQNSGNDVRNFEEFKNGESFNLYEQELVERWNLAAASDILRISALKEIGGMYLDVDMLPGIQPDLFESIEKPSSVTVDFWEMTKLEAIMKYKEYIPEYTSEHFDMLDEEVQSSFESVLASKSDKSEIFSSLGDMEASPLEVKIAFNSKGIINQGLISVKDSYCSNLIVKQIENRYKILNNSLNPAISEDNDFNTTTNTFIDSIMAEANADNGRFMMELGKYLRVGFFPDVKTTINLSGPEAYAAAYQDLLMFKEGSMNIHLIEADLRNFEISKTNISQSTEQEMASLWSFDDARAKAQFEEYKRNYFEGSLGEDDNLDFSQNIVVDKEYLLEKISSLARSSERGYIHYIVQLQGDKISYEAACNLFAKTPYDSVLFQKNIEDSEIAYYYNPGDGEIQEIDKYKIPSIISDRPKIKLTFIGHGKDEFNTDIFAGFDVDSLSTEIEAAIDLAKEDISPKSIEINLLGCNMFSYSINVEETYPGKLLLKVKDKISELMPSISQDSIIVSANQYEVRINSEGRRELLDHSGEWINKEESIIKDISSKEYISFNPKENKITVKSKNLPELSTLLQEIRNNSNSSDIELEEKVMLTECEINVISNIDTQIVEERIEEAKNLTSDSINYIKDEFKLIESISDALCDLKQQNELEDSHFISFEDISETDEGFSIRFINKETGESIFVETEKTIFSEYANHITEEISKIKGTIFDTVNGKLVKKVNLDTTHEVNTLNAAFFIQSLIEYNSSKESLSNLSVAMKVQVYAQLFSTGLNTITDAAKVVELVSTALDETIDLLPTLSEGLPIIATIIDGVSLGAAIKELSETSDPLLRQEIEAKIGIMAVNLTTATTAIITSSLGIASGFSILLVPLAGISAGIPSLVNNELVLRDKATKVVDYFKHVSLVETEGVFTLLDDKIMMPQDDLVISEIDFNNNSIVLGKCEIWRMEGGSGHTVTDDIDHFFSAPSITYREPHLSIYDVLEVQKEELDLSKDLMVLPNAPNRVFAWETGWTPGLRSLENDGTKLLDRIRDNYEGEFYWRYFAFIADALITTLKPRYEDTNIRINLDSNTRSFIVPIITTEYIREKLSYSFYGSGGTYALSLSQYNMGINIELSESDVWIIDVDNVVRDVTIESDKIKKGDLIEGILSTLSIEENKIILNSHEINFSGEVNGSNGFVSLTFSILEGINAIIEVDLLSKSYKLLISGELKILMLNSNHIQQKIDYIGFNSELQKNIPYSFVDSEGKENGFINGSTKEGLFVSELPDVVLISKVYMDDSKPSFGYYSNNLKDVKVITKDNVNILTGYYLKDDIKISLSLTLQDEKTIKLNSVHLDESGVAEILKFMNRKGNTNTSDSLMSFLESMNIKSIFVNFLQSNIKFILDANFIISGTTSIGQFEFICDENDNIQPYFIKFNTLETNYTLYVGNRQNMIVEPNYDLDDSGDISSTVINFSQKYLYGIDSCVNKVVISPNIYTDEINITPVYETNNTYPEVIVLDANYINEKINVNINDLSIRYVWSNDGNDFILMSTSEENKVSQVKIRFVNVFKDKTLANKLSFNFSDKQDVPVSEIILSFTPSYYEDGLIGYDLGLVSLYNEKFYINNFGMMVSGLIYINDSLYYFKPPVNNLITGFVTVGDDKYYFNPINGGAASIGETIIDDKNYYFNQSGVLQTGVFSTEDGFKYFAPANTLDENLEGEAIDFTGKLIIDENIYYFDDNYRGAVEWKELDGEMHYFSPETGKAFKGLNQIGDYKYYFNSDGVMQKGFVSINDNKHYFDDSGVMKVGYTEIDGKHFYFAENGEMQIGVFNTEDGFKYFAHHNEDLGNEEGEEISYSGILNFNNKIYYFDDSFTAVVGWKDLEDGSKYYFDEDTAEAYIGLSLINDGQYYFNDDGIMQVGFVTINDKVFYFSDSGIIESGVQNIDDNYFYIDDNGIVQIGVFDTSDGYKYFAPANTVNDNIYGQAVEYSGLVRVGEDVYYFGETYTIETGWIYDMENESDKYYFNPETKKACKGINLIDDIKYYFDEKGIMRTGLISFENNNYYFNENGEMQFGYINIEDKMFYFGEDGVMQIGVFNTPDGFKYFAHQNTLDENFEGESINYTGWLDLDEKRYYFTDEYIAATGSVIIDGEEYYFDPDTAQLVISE
Procedure: (FIG. 5A) LHD inhibits TcdB-induced cell rounding. CT26 cells in 12-well plates were exposed to HD or LHD at 750 ng/ml (50 times of TcdB concentration) or nothing for 1 hour, followed by exposure to TcdB at 15 ng/ml for 5 hours. (FIG. 5B) Western-blot analysis of non-glucosylated Rac1 in CT26 cells treated with TcdB in the presence or absence of LHD or HD. TcdB glucosylates Rac1 in cells, serving as a readout for toxin cytotoxicity. Quantitation of Rac1 levels in Western-blot was shown in low panel (*p<0.05). (FIG. 5C) CT26 cells were lysed, and the cytosolic fraction was exposed to TcdB (15 ng/ml) with or without HD at 750 ng/ml (50 times of TcdB concentration) or LHD at 1500 ng/ml (same molecular concentration as HD) or nothing for 1 h followed by Western Blot analysis using a monoclonal antibody that only recognizes non-glucosylated Rac1. β-actin was used as an equal loading control. Quantitation of Rac1 levels in Western-blot was shown in low panel (****p<0.0001).
It was reported that the human defensin protein HD5 (HD) could inhibit TcdB (Giesemann, Guttenberg et al. 2008). Therefore, we evaluated the inhibitory effects of LHD and HD on TcdB. Briefly, CT26 cells in 12-well plates were exposed to LHD, synthesized HD or PBS at 750 ng/ml (50 times of TcdB concentration) for 1 hr, followed by exposure to TcdB at 15 ng/ml for 5 hrs. Total cell lysates were subjected to 12% SDS-PAGE separation, and transferred onto a Nylon membrane. Following blocking for 1 hr at room temperature with 5% skim milk, the membrane was incubated overnight at 4° C. with RAC1 antibody (1:1000, Cat: 610650, BD Biosciences) and β-actin antibody (1:10000, Cat: A5441, Sigma-Aldrich).

C. difficile R20291 [4] = experiment: Lytic activity of LHD after incubation with mouse intestinal contents; assay type: in vitro ADME; conditions: 37° C., 1 hr
Procedure: Protein LHD was incubated with mouse intestinal contents at 37° C. for 15, 30 or 60 minutes, then optical drop assays were performed on C. difficile R20291 to test the lytic activity of LHD at a concentration of 100 μg/ml. Experiments were repeated 3 times, and representative data were shown.
To appreciate the stability and activity of LHD in the mouse intestine, […] was incuated with freshly prepaerd mouse intestinal contents for 15 min, 30 min and 60 min, and retrived by centrifugation. Lytic activities of LHD treated with intestinal contents were determined on strain C. difficile R20291 as described above.

B1: LHD: Fusion of phage phiC2 lysin catalytic domain (LCD, 179aa), (GGGGS)3 linker and human alpha-defensin 5; SEQ ID NO:1 (protein)
chain: MKICITVGHSILKSGACTSADGVVNEYQYNKSLAPVLADTFRKEGHKVDVIICPEKQFKTKNEEKSYKIPRVNSGGYDLLIELHLNASNGQGKGSEVLYYSNKGLEYATRICDKLGTVFKNRGAKLDKRLYILNSSKPTAVLIESFFCDNKEDYDKAKKLGHEGIAKLIVEGVLNKNINGGGGSGGGGSGGGGSATCYCRTGRCATRESLSGVCEISGRLYRLCCR
lytic activity (drop in OD600) (C. difficile R20291 [1]): potent lytic activities | MIC (C. difficile R20291 [2]): 0.78 µg/mL | cell rounding caused by TcdB [3]: decreased cell rounding; also recorded: comparable to human defensin peptide HD5 | non-glucosylated Rac1 in cells (readout of cytotoxicity of TcdB) [3]: significant increase | lytic activity after treatment with intestinal contents (C. difficile R20291 [4]): did not affect lytic activity

Source: US12630596B2, “Engineered lysin-human defensin protein” (priority 2018, dated 2026)
